Legend:
[1] = molecular target: HLA-A*02:01; assay: IEDB peptide-MHC binding, purified MHC/competitive/radioactivity; filed as Kd, often an IC50 or EC50 that approximates it; ≥ and ≤ were set here for values at or beyond the usual limits of such assays
[2] = molecular target: HLA-A*02:03; assay: as above
[3] = molecular target: HLA-A*02:17; assay: as above
[4] = molecular target: HLA-A*03:01; assay: IEDB peptide-MHC binding, purified MHC/competitive/fluorescence; ≥ and ≤ were set here for values at or beyond the usual limits of such assays
[5] = molecular target: HLA-A*11:01; assay: as above; conditions: source organism: Zaire ebolavirus
[6] = molecular target: HLA-A*03:01; assay: IEDB peptide-MHC binding, purified MHC/competitive/fluorescence; filed as Kd, often an IC50 or EC50 that approximates it; ≥ and ≤ were set here for values at or beyond the usual limits of such assays
[7] = molecular target: HLA-A*68:02; assay: IEDB peptide-MHC binding, purified MHC/competitive/radioactivity; filed as Kd, often an IC50 or EC50 that approximates it; ≥ and ≤ were set here for values at or beyond the usual limits of such assays
[8] = molecular target: HLA-B*07:02; assay: as above; conditions: source organism: Dengue virus 2 Jamaica/1409/1983
[9] = molecular target: HLA-A*02:01; assay: IEDB peptide-MHC binding, purified MHC/competitive/fluorescence; ≥ and ≤ were set here for values at or beyond the usual limits of such assays
[10] = molecular target: HLA-A*24:02; assay: as above; conditions: source organism: Zaire ebolavirus
[11] = molecular target: HLA-B*15:01; assay: as above
[12] = molecular target: HLA-A*02:06; assay: IEDB peptide-MHC binding, purified MHC/competitive/radioactivity; filed as Kd, often an IC50 or EC50 that approximates it; ≥ and ≤ were set here for values at or beyond the usual limits of such assays
[13] = molecular target: HLA-A*01:01; assay: IEDB peptide-MHC binding, purified MHC/direct/fluorescence; filed as Kd, often an IC50 or EC50 that approximates it; ≥ and ≤ were set here for values at or beyond the usual limits of such assays; conditions: source organism: Homo sapiens
[14] = molecular target: HLA-A*02:01; assay: IEDB peptide-MHC binding, purified MHC/competitive/fluorescence; filed as Kd, often an IC50 or EC50 that approximates it; ≥ and ≤ were set here for values at or beyond the usual limits of such assays; conditions: source organism: Homo sapiens
[15] = molecular target: HLA-A*69:01; assay: as above; conditions: source organism: Homo sapiens
[16] = molecular target: HLA-B*18:01; assay: as above; conditions: source organism: Homo sapiens
[17] = molecular target: HLA-B*27:03; assay: as above; conditions: source organism: Homo sapiens
[18] = molecular target: HLA-B*39:01; assay: as above; conditions: source organism: Homo sapiens
[19] = molecular target: HLA-B*46:01; assay: as above; conditions: source organism: Homo sapiens
[20] = molecular target: HLA-B*51:01; assay: as above; conditions: source organism: Homo sapiens
[21] = molecular target: HLA-B*57:01; assay: as above; conditions: source organism: Homo sapiens
[22] = molecular target: HLA-B*08:01; assay: IEDB peptide-MHC binding, purified MHC/competitive/radioactivity; filed as Kd, often an IC50 or EC50 that approximates it; ≥ and ≤ were set here for values at or beyond the usual limits of such assays; conditions: source organism: Dengue virus 3 Sri Lanka/1266/2000
[23] = molecular target: HLA-B*15:01; assay: as above; conditions: source organism: Dengue virus 3 Sri Lanka/1266/2000
[24] = source organism: Dengue virus 3 Sri Lanka/1266/2000
[25] = source organism: Zaire ebolavirus
[26] = source organism: Dengue virus 2 Jamaica/1409/1983
[27] = source organism: Dengue virus 1 Brazil/97-11/1997
[28] = source organism: Dengue virus 4 Philippines/H241/1956
[29] = source organism: Dengue virus 3 Martinique/1243/1999
[30] = source organism: Dengue virus 3 China/80-2/1980

LMMILPAALA
Kd [1, 24]: 11 nM
Kd [2, 24]: 98.8 nM
Kd [3, 24]: 1840 nM

LQLPRDRFK
IC50 [4, 25]: 5420 nM
IC50 [5]: 1760 nM

MMYTVSLGH
Kd ([6]; source organism: Vibrio parahaemolyticus AQ3810): 1.2 nM

MVSILASSL
Kd [7, 26]: 134 nM
Kd [8]: 1010 nM

MVTRFESLK
Kd ([6]; source organism: Influenza A virus (A/Swine/Minnesota/55551/2000(H1N2))): 163 nM

NTTGKLIWK
IC50 [4, 25]: 24700 nM
IC50 [5]: 1040 nM

QQTNAMVTL
IC50 [9, 25]: 38500 nM
IC50 [10]: 59100 nM
IC50 [11, 25]: ≥ 76000 nM

QTNAMVTLR
IC50 [4, 25]: 16200 nM
IC50 [5]: 1200 nM

QVFGTAYGV
Kd [12, 27]: 7.26 nM
Kd [7, 27]: 0.95 nM

QVPKLLLWF
IC50 ([9]; source organism: Variola virus): 2060 nM
IC50 ([11]; source organism: Variola virus): ≥ 371000 nM

RLITVNPIV
Kd [2, 26]: 62.7 nM
Kd [3, 26]: 621 nM

SKRERQLAK
IC50 ([4]; source organism: Vaccinia virus Copenhagen): 30400 nM

TLIASLVMLL
Kd [1, 28]: 49.4 nM
Kd [2, 28]: 28.6 nM
Kd [3, 28]: 57.9 nM

TVAANEMGL
Kd [7, 27]: 66.8 nM

VAGLITGGR
IC50 [9, 25]: ≥ 655000 nM
IC50 [4, 25]: ≥ 104000 nM
IC50 [5]: 26100 nM

VIFILLMLV
Kd [2, 29]: 171 nM
Kd [12, 29]: 2350 nM
Kd [3, 30]: 914 nM

VLWEGGHDL
Kd [1, 28]: 14.3 nM
Kd [3, 28]: 453 nM

VQRQIQVHA
IC50 [9, 25]: 45500 nM
IC50 [11, 25]: 13500 nM

VTSSVSSGY
Kd [13]: 5.4 nM
Kd [14]: ≥ 20000 nM
Kd [15]: ≥ 20000 nM
Kd [16]: ≥ 20000 nM
Kd [17]: ≥ 20000 nM
Kd [18]: ≥ 20000 nM
Kd [19]: ≥ 20000 nM
Kd [20]: ≥ 20000 nM
Kd [21]: ≥ 20000 nM

WMTTEDMLAV
Kd [1, 26]: 82.4 nM
Kd [2, 26]: 20.4 nM
Kd [12, 26]: 25.1 nM
Kd [3, 26]: 2510 nM

YLALLAAFKV
Kd [1, 26]: 1.62 nM
Kd [2, 26]: 15 nM
Kd [12, 26]: 9.62 nM
Kd [3, 26]: 62.3 nM

YQLWTALVSL
Kd [12, 24]: 5.87 nM
Kd [3, 30]: 91.4 nM
Kd [22]: 974 nM
Kd [23]: 191 nM

YVSAIAQAKA
Kd [7, 27]: 22 nM
